From publication PMC6525511

Molecular target: RIG-5 (construct not stated; SPR) (C. elegans)
Assay: SPR

ZIG-8 (purified; construct not stated; SV-AUC and SPR) (from UniProt G5ED00 22-251) (natural protein)
Kd: 10 µM
